We go through two molecules from US20220315908A1, “NOVEL GARDNERELLA ENDOLYSINS AND USES THEREOF” (priority 2019, published 2022).

The subject of test [1] is G. vaginalis sensu stricto strain Gv_9. Kind of test: Quantitative reduction in viable CFU assay in bacterial suspension. Type of test: cell-based, Gardnerella vaginalis sensu stricto. The following applies: Gv_9; 5 hours, pH 5.0, anaerobic; 10 ul endolysin (0.2 mg/ml where possible) + 90 ul 5e7 CFU/ml; average of triplicate. As to the method:
The lysis activity on the four main species of Gardnerella of 91 constructs (natural and domain-swapped endolysins) was quantitatively assessed using the method described in Reference Example 2. […]
(§1) The results are shown in FIGS. 8A to 8D together with Tables 5A to 5C. In FIGS. 8A to 8D, the logarithmic Y axis depicts the count of surviving cells. The dotted line indicates the limit of detection (LOD) given by plating of 2 ul of the reaction mix (500 CFU/ml). Each combination of the natural 10 H-domains and the natural 9 B-regions was assessed, including the natural endolysins (H1B1, H2B2, H3B3, etc.), plus H6B6. […] The activity of each construct was measured on each of the 4 main Gardnerella species G. vaginalis sensu stricto, G. leopoldii, G. piotii, and G. swidsinkii. All conditions have been measured in triplicate. The survival after 5 hours incubation at pH 5.0 under anaerobic conditions with endolysins vs. buffer was measured by quantitative plating. The values indicate the log 10 of the ratio of surviving CFU for treated vs. untreated cells. The average of the triplicate measurements is used. In tables 5A and 5B, high negative log 10 values, e.g. −6.7, −5.5, −4.8 etc. are associated with high enzymatic activity, while log 10 values closer to zero or even positive log 10 values are associated with low or no enzymatic activity. […] Inversely, a reduction value of −3.7 means a 10^3.7-fold (=5012-fold) reduction of viable CFU in treated sample vs. untreated control.
(§2) Gardnerella cells were recovered from cryo stock by plating on Chocolate Agar plates (Beckton Dickinson) and incubating for 48 h at 37° C. under anaerobic conditions. For Lactobacilli, BD Schaedler/5% sheep blood agar plates were used instead. Colonies were scraped from the plate, resuspended in Hardy Broth or NYC-III-HS-5.0 at the pH as indicated, and the suspension adjusted to OD (610 or 620 nm as indicated) 0.1. It has to be noted that two Tecan Microplate readers, having respectively a 610 nm or 620 nm filter, have been used interchangeably in the experiments. Although it doesn't make any difference for the experiments, the exact wavelength used is specified in each example. If not stated otherwise, 90 μl cell suspension was mixed with 10 μl endolysin solution, for the different species/endolysin combinations, in 384-well plates. OD(610-620 nm as indicated) was measured at the beginning of the reaction and at the end, either as two measurement points or as a continuous kinetic in a Tecan F200 Microplate reader. The reactions were incubated for 5 hours (or otherwise the time indicated) at 37° C. under anaerobic, micro-aerophilic or aerobic conditions as indicated. Anaerobic conditions intend that oxygen was fully depleted from the container in which the bacteria are incubated (Sigma-Aldrich anaerobic jar or sealable lunch box) with an anaerobic sachet, and the lack of oxygen was confirmed with an anaerobic indicator inside the container. Where micro-aerophilic conditions are indicated, the candle-in-a-jar method was used (tea candle lit in an appropriate sealable container, which reduces oxygen levels until the flame dies out). Then each well was diluted in 5 steps (10^−1 to 10^−5) using 96-U-well bottom plates, and 2 μl of each dilution of each reaction mix are plated on BD Chocolate agar plates or BD Schaedler/5% sheep blood agar plates for Gardnerella and Lactobacilli, respectively, for detecting and quantifying surviving CFU. Detection plates were incubated at 37° C. for 48 hours under anaerobic conditions.

For test [2], the system named is G. leopoldii strain Gv_11. Described as above. The format is cell-based, Gardnerella leopoldii. The following applies: 5 hours, pH 5.0, anaerobic, 10 ul endolysin (0.2 mg/ml where possible) + 90 ul 5e7 CFU/ml, average of triplicate. As to the method: (§3) The lysis activity on the four main species of Gardnerella of 91 constructs (natural and domain-swapped endolysins) was quantitatively assessed using the method described in Reference Example 2. Briefly, 90 ul 5e7 CFU/ml of the indicated strain were incubated for 5 hours at pH 5.0 under anaerobic conditions with 10 ul endolysin (concentration adjusted to 0.2 mg/ml where possible, see Table 4).
as §1, §2

Test [3] deals with four Gardnerella strains (Gv_9, Gv_11, Gv_17, Gv_23). Put plainly: CFU reduction averaged across the four Gardnerella strains, with activity ranks. The format is cell-based. Particulars: for average of the log 10 activities of each construct across the four Gardnerella strains: pH 5.0, 5 hours, anaerobic; for activity rank of all endolysins: rank 1-91, based on the data of Table 5B. How it is done: as §3, §1
as §2, with “out).” for “out). Then each well was diluted in 5 steps (10^−1 to 10^−5) using 96-U-well bottom plates, and 2 μl of each dilution of each reaction mix are plated on BD Chocolate agar plates or BD Schaedler/5% sheep blood agar plates for Gardnerella and Lactobacilli, respectively, for detecting and quantifying surviving CFU. Detection plates were incubated at 37° C. for 48 hours under anaerobic conditions.”

B1: H12B12: natural Gardnerella prophage endolysin from strain 3549624 (protein)
chain: MSKKGIDVSVWQGDIDFNAVKASGVEFVIIRAGYGIGHKDKWFEENYRKAKTAGLDVGSYWYSYASSAGEVALEAQSCVNILSGKSFEYPVYFDLEEKSQLNRGRDFCDSLITSFCNKLEACGYYAGFYTSLSVANNLVSSHVRDRYALWIAQWNTHCSYQGSYGLWQYSSSGSVNGIAGRVDMDYAYVDYPSVIKNAGLNGYQNGGSYTAPQTSSIDEVAREVINGDWGNGIERKNRLTSAGYDYTSVQNKVNELLGVKAYRKSVDELAREVIRGTWGNGKTRKQRLTQAGYDYNAVQKRVNELL
modifications: EL12_strain_3549624_non-prophage
As to B1, the “log 10 of the ratio of surviving CFU for treated vs. untreated cells” value (“log 10 of the ratio of surviving CFU” for short) in test [1] is −0.2 log 10. Also, the “log 10 of the ratio of surviving CFU” value in test [2] is listed as −1.0 log 10. In test [3], the “average of the log 10 activities of each construct across the four Gardnerella strains” value is given as −0.9 log 10 and the “activity rank of all endolysins” value is listed as 73.

B2: H11B11: natural Gardnerella prophage endolysin from strain JCP8017A (protein)
chain: MSKRGIDVSVWQGDIDFNAVKASGVEFVIIRAGYGIGHKDKWFEQNYRKAKTTGLDVGAYWYSYASSAGEAAEEAQSCVNILSGKSFEYPVYFDLEEKSQLNRGRDFCDSLITSFCNKLETYGYYAGFYTSLSVANNLVSSHVRDRYALWIAQWNTHCDYQGSYGLWQYSSSGSVDGIAGRVDMDYTYVDYPSVIKKAGLNGYKNGGSYTAPQTSSIDEVAREVINGDWGNGNERKNRLTSAGYDYTSVQNKVNELLGVKAYRKSVDELAREVIRGTWGNGSTRKQRLTQAGYDYDAVQKRVNELL
modifications: EL11_strain_JCP8017A
notes: natural Gardnerella prophage endolysin from strain JCP8017A
Regarding B2, the “log 10 of the ratio of surviving CFU” value in test [1] is recorded as 0.1 log 10; in test [2] it was −1.6 log 10. The “average of the log 10 activities of each construct across the four Gardnerella strains” value in test [3] is on record as −1.5 log 10. In addition, the “activity rank of all endolysins” value in test [3] came out at 57.
